Values belong to the binder of their own block, whether it stands above or below them.
Legend:
[1] = target: T1, DHT03_3arm_A21/B21/C82 chain C; assay: three components purified separately, mixed equimolar, heat annealed, SEC, negative stain EM
T1 construct: also called chain C DHR82 fusion; chain C of C3-DHT03-01-DHR82 and C4-DHT03-01-DHR82
T1 chain: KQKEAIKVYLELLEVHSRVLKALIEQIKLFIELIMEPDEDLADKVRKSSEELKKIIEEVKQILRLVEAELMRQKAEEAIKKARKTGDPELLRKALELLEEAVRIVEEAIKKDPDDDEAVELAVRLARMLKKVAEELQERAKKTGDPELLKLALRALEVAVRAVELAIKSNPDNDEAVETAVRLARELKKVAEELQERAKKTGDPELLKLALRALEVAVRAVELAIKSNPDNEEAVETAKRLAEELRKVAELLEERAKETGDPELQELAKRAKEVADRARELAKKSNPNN
Description: As is evident from the images in FIGS. 4c and 4d, the cyclic structures retain one of the original heterotrimer helical hairpins in each corner; these short, outward facing protein chains provide fusion points for further elaboration of higher order symmetric assemblies. To evaluate the potential for building up larger nanostructures using the rings as hubs, and explore the modularity of the designed building blocks, we replaced the original outward facing chain C helical hairpin with the chain C DHR82 fusion (as it was the largest 4-repeat DHR) from FIG. 3d, row 8. This was done for two designs (C3-DHT03-01 and C4-DHT03-01), with chain C replaced by fusion C82 through expressing and purifying the three components separately, mixing them in equal molar quantities, and reconstituting using heat annealing.
An AKTA PURE FPLC system was used. Heterotrimer bases, arm extensions, coiled coil C2 rings, and all constructs mentioned in SI were passed through a Cytvia Superdex S200 Increase 10/300 GL column, while C3/C4 rings made from DHT03 were passed through a Cytvia Superdex S6 Increase 10/300 GL column. The mobile phase was TBS (25 mM Tris-HCl pH 8.0, 100 mM NaCl or 25 mM Tris-HCl pH 8.0, 150 mM NaCl). Samples ran at a flow rate of 0.75 ml/min and fractions were collected at 0.5 ml.

[2] = target: T2, DHT03 chain C (SEQ ID NO: 59); assay: chains mixed and annealed, SEC, negative stain EM; A4B4C4 ring
T2 chain: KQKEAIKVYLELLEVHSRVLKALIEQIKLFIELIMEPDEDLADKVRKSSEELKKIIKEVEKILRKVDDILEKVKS

[3] = target: T3, C4-DHT03-01 chain B; assay: as above
T3 construct: four copies in the A4B4C4 ring; also called C4-DHT03-01-DHR82 chain B
T3 chain: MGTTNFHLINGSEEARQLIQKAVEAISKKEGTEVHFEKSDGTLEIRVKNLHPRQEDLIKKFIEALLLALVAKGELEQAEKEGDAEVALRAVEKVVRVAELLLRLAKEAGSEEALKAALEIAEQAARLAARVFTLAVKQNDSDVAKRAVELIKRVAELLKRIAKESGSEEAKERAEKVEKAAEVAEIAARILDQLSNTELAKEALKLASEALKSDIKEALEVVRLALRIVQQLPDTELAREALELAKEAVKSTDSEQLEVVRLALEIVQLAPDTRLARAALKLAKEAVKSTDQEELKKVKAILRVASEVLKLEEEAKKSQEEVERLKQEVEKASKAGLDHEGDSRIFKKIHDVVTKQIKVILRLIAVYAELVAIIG

[4] = target: T4, DHT04 chain B; assay: co-expression, IMAC, SEC, native MS; chains of one ABC heterotrimer
T4 chain: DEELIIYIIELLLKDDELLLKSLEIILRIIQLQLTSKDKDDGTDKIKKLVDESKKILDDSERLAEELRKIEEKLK
Description: (§1) Genes encoding 85 heterotrimers in a tricistronic expression vector were obtained, and the proteins were expressed in E. coli and purified via IMAC with only one chain having the 6×His-tag. Nine of the designs (FIG. 3a) had monodisperse SEC peaks (FIG. 3b), were almost exclusively ABC by nMS, and had good SAXS fits to the design models (Table 7). […] Eight of the designs are parallel heterotrimers, while DHTO9 is an antiparallel heterotrimer. […] For 3 other designs, only the ABC heterotrimer was determined to form by nMS (when the respective SEC fraction was analyzed) but the heterotrimer SEC peak was preceded by soluble aggregate that would make building with these constructs difficult downstream. We explored the dependence of cooperativity on connectivity between the three chains by changing the positions of the loops across different helices in DHT03, while keeping the rest of the interface intact. […] The ability to sustain alternate loop closures increases the number of heteromeric building blocks available for future nanostructure assembly applications and may enable rigid fusion of functional domains to the different termini available.
(§2) Samples were analyzed by online buffer exchange native mass spectrometry (nMS) to evaluate sample purity and accurately determine oligomeric states⁴². Multiple instruments were used as the analyses were carried out over the duration of the protein design process. The mass spectrometers used for detection were a Q Exactive™ UHMR modified with a surface-induced dissociation device and an Exactive™ Plus EMR modified with a selection quadrupole and a surface-induced dissociation device (Thermo Fisher Scientific)⁴³. The liquid chromatography systems used for the buffer exchange include a Vanquish™ Duo UHPLC and a Dionex™ Ultimate 3000 HPLC (Thermo Fisher Scientific). A heated electrospray ionization source (HESI-II, Thermo Fisher Scientific) with a spray voltage of ˜4 kV was used for ionization.

[5] = target: T5, DHT04 chain C; assay: as above
T5 chain: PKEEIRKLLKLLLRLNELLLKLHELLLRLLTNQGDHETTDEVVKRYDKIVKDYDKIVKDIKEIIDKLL
Description: as §1, §2

[6] = target: T6, DHT02 chain B; assay: as above
T6 chain: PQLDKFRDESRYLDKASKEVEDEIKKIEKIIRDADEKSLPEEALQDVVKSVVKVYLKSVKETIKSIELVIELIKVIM
Description: as §1, §2

[7] = target: T7, DHT02 chain C; assay: as above
T7 chain: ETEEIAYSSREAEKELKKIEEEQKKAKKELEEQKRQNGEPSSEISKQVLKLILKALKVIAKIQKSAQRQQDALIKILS
Description: as §1, §2

[8] = target: T2, DHT03 chain C (SEQ ID NO: 59); assay: chains mixed and annealed, SEC, negative stain EM; A3B3C3 ring
[9] = target: T8, C3-DHT03-01 chain B; assay: as above
T8 construct: three copies in the A3B3C3 ring; also called C3-DHT03-01-DHR82 chain B
T8 chain: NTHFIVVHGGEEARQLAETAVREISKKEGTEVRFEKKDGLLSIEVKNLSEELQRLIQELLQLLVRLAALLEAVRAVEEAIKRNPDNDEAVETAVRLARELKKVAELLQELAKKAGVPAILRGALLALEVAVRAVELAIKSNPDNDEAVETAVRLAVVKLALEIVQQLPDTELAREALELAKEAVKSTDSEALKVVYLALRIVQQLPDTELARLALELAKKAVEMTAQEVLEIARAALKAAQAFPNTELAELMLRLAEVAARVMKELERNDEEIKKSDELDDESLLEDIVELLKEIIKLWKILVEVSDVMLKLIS

[10] = target: T9, C3-DHT03-02 chain B; assay: as above
T9 construct: three copies in the A3B3C3 ring
T9 chain: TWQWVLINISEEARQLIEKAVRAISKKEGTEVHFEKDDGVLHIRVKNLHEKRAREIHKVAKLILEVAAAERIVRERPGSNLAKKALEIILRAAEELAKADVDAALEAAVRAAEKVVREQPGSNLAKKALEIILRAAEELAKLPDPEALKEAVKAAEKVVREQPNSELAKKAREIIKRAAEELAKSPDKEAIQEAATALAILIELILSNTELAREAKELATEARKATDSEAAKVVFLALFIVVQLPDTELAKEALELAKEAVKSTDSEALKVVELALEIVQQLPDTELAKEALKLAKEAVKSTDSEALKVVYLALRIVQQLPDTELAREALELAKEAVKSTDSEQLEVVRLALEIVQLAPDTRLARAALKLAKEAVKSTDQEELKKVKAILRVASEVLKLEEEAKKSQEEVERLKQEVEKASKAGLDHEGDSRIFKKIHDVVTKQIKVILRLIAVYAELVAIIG

[11] = target: T10, C4-DHT03-02 chain B; assay: chains mixed and annealed, SEC, negative stain EM; A4B4C4 ring
T10 construct: four copies in the A4B4C4 ring
T10 chain: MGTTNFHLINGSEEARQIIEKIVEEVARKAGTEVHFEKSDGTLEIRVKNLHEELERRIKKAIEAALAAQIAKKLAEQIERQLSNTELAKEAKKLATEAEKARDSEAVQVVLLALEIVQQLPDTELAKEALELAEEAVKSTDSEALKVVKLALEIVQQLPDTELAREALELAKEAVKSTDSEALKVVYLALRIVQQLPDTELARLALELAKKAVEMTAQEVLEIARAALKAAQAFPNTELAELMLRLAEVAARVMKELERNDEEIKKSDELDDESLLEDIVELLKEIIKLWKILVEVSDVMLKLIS

binding result [1]: binds | binding result [2]: binds | binding result [3]: binds
B1: C4-DHT03-01 chain A (designed binder)
chain: MGNTHFIVVHGGEEARQLAETAVREISKKEGTEVRFEKKDGLLSIEVKNLSEELQRLIQELLQLLVRLAALLEAVRAVEEAIKRNPDNDEAVETAVRLARELKKVAELLQELAKKAGVPAILRGALLALLVAARAVALAALANSKNDEAREALKRLAEELKKVAKELKERAKKTKDSELERLALAAELMALAAEIVAQLANTELAREALELATEAIKASDDEALRVVKLALRIVQQLPDTELARLALELAKKAVEMTAQEVLEIARAALKAAQAFPNTELAELMLRLAEVAARVMKELERNDEEIKKSDELDDESLLEDIVELLKEIIKLWKILVEVSDVMLKLIS
notes: four copies in the A4B4C4 ring; also called C4-DHT03-01-DHR82 chain A

binding result [4]: binds | binding result [5]: binds
B2: DHT04 chain A (designed binder)
chain: PERELLELLIRLFNSQVKLFELQKELLELLRELLEENSEDNSRKLEDLLRKIQELLKENQDLLYTVEDVLRKLK

binding result [6]: binds | binding result [7]: binds
B3: DHT02 chain A (designed binder)
chain: PDSDELRKLLKQLEDLLQQLKDLIDKAERHNGDNDVILELHEIYLRLLDIYQKLAKIILKLLR

binding result [8]: binds | binding result [9]: binds | binding result [1]: binds
B4: C3-DHT03-01 chain A (designed binder)
chain: TTNFHLINGSEEARQLIQKAVEAISKKEGTEVHFEKSDGTLEIRVKNLHPRQEDLIKKFIEALLLALVAKGELEQAEKEGDAEVALRAVEKVVRVAELLLRLAKEAGSEEALKAALEIAEQAARLAKRVLELAEKQGDAEVALKAVLLVVIVAALLVKIAKESGSEEAKERATRVAREASRLADRVEELARKQNNEDVTLAAKVLKLAADIIAQLMNTELAEEAAQLATEALKATDREQLEVVRLALEIVQLAPDTRLARAALKLAKEAVKSTDQEELKKVKAILRVASEVLKLEEEAKKSQEEVERLKQEVEKASKAGLDHEGDSRIFKKIHDVVTKQIKVILRLIAVYAELVAIIG
notes: three copies in the A3B3C3 ring; also called C3-DHT03-01-DHR82 chain A

binding result [8]: binds | binding result [10]: binds
B5: C3-DHT03-02 chain A (designed binder)
chain: SSIFLLSNVDESARQLAEELVREISKKEGTEVRFEKDDGFLTIEVKNLSEERLREIARALQLIVDVANAERVVRERPGSNLAKKALEIILRAAEELAKLTLEASLKAAQIAAELVVREQPGSNLAEKAKTIILQARAAELAIRIEEQLKDTELAKEAKELATEAIKAQDKEALKVVELALKIVQQLPDTELAKEALKLAKEAVKSTDSEALKVVELALEIVQQLPDTELAKEALELAEEAVKSTDSEALKVVKLALEIVQQLPDTELAREALELAKEAVKSTDSEALKVVYLALRIVQQLPDTELARLALELAKKAVEMTAQEVLEIARAALKAAQAFPNTELAELMLRLAEVAARVMKELERNDEEIKKSDELDDESLLEDIVELLKEIIKLWKILVEVSDVMLKLIS
notes: three copies in the A3B3C3 ring

binding result [2]: binds | binding result [11]: binds
B6: C4-DHT03-02 chain A (designed binder)
chain: MGNTHFIVVHGGEEARQLAETAVREISKKEGTEVRFEKKDGLLSIEVKNLSEELQRLIQELLQLLVRLAALLEAVRAVEEAIKRNPDNDEAVETAVRLARELKKVAELLQELAKKAGVPAILRGALLALEVAVRAVELAIKSNPDNDEAVETAVRLARELLKVAAELAERAAKTKDEELIKLAQRAIEVAQRAVELAKKSNKDNEEAEKTRLALEAMELALQIFRQLKNTELAREAIELATEAAKATDSEALKVVKLALKIVQQLPDTELAKEALELAKEAVKSTDSEALKVVELALEIVQQLPDTELAKEALKLAKEAVKSTDSEALKVVYLALRIVQQLPDTELAREALELAKEAVKSTDSEQLEVVRLALEIVQLAPDTRLARAALKLAKEAVKSTDQEELKKVKAILRVASEVLKLEEEAKKSQEEVERLKQEVEKASKAGLDHEGDSRIFKKIHDVVTKQIKVILRLIAVYAELVAIIG
notes: four copies in the A4B4C4 ring
